From paper PMC5670239, “Structural basis for mutually exclusive co-transcriptional nuclear cap-binding complexes with either NELF-E or ARS2” (Nature Communications, 2017)

T1: CBC (Homo sapiens, UniProt P52298)
T1 sequence (P52298 1-156): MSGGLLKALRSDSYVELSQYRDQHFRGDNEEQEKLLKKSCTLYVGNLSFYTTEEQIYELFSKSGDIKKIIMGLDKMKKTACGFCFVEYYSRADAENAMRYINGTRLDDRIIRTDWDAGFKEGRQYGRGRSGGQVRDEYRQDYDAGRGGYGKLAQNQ
T1 sequence (Q09161 20-790 partner): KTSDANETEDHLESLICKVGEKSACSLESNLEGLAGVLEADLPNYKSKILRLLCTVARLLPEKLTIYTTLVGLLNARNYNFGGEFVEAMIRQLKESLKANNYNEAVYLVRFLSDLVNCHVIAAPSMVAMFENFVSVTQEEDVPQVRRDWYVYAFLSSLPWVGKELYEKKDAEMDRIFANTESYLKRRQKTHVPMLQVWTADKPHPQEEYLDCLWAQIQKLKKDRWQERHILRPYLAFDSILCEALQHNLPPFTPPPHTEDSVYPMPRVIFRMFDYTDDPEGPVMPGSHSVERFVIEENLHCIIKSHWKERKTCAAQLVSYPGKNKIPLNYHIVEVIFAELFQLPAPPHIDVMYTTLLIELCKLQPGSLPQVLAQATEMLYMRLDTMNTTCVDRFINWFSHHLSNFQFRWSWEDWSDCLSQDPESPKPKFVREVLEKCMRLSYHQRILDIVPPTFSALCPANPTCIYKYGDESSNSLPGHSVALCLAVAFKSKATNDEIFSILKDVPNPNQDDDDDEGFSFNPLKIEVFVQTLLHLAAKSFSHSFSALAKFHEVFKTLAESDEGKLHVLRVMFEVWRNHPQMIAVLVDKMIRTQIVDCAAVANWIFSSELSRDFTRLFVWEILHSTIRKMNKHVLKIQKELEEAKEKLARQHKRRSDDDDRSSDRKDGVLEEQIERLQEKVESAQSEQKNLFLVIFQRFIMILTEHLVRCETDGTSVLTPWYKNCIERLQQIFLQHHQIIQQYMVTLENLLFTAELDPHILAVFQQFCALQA

T2: m^7GTP-CBC (Homo sapiens, UniProt P52298+Q09161)
T2 construct: 6-histidine tag (pETM30 vector) (N, cleaved yes); made in house; host or cells: CBP20 in E. coli Rosetta 2; CBP80ΔNLS in High Five insect cells; heterodimer reconstituted on Ni-sepharose
T2 sequence (Q09161 20-790): T1 sequence (Q09161 20-790 partner)
T2 sequence (P52298 1-156): T1 sequence (P52298 1-156)

B1: NELF-E 244–360: NELF-E fragment that lacks the last 20 residues (protein, UniProt P18615 244-360, looked up, fragment)
chain: GPFRRSDSFPERRAPRKGNTLYVYGEDMTPTLLRGAFSPFGNIIDLSMDPPRNCAFVTYEKMESADQAVAELNGTQVESVQLKVNIARKQPMLDAATGKSVWGSLAVQNSPKGCHRD
B2: ARS2^147–845: C-terminally truncated ARS2, residues 147–845 (protein, UniProt Q9BXP5 147-845, looked up, fragment)
chain: PVMKTFKEFLLSLDDSVDETEAVKRYNDYKLDFRRQQMQDFFLAHKDEEWFRSKYHPDEVGKRRQEARGALQNRLRVFLSLMETGWFDNLLLDIDKADAIVKMLDAAVIKMEGGTENDLRILEQEEEEEQAGKPGEPSKKEEGRAGAGLGDGERKTNDKDEKKEDGKQAENDSSNDDKTKKSEGDGDKEEKKEDSEKEAKKSSKKRNRKHSGDDSFDEGSVSESESESESGQAEEEKEEAEEALKEKEKPKEEEWEKPKDAAGLECKPRPLHKTCSLFMRNIAPNISRAEIISLCKRYPGFMRVALSEPQPERRFFRRGWVTFDRSVNIKEICWNLQNIRLRECELSPGVNRDLTRRVRNINGITQHKQIVRNDIKLAAKLIHTLDDRTQLWASEPGTPPLPTSLPSQNPILKNITDYLIEEVSAEEEELLGSSGGAPPEEPPKEGNPAEINVERDEKLIKVLDKLLLYLRIVHSLDYYNTCEYPNEDEMPNRCGIIHVRGPMPPNRISHGEVLEWQKTFEEKLTPLLSVRESLSEEEAQKMGRKDPEQEVEKFVTSNTQELGKDKWLCPLSGKKFKGPEFVRKHIFNKHAEKIEEVKKEVAFFNNFLTDAKRPALPEIKPAQPPGPAQILPPGLTPGLPYPHQTPQGLMPYGQPRPPILGYGAGAVRPAVPTGGPPYPHAPYGAGRGNYDAFRGQGGY
B3: ARS2 763–845: human ARS2 isoform 4 residues 763–845, lacks the C-terminal 27 amino acids (protein, UniProt Q9BXP5 763-845, looked up, fragment)
chain: PEIKPAQPPGPAQILPPGLTPGLPYPHQTPQGLMPYGQPRPPILGYGAGAVRPAVPTGGPPYPHAPYGAGRGNYDAFRGQGGY
modifications: isoform 4
notes: human ARS2 isoform 4 residues 763–845, lacks the C-terminal 27 amino acids
B4: PHAX 103–308: human PHAX residues 103–308 (protein, UniProt Q9H814 103-308, looked up, fragment)
chain: SQKPPVAGGKKINNIWGAVLQEQNQDAVATELGILGMEGTIDRSRQSETYNYLLAKKLRKESQEHTKDLDKELDEYMHGGKKMGSKEEENGQGHLKRKRPVKDRLGNRPEMNYKGRYEITAEDSQEKVADEISFRLQEPKKDLIARVVRIIGNKKAIELLMETAEVEQNGGLFIMNGSRRRTPGGVFLNLLKNTPSISEEQIKDIF
B5: PHAX 103–294: human PHAX residues 103–294, minimal CBC binding region (protein, UniProt Q9H814 103-294, looked up, fragment)
chain: SQKPPVAGGKKINNIWGAVLQEQNQDAVATELGILGMEGTIDRSRQSETYNYLLAKKLRKESQEHTKDLDKELDEYMHGGKKMGSKEEENGQGHLKRKRPVKDRLGNRPEMNYKGRYEITAEDSQEKVADEISFRLQEPKKDLIARVVRIIGNKKAIELLMETAEVEQNGGLFIMNGSRRRTPGGVFLNLLK
B6: ARS2 763–871: human ARS2 isoform 4 residues 763–871, E. coli expressed (protein, UniProt Q9BXP5 763-871, looked up, fragment)
chain: PEIKPAQPPGPAQILPPGLTPGLPYPHQTPQGLMPYGQPRPPILGYGAGAVRPAVPTGGPPYPHAPYGAGRGNYDAFRGQGGYPGKPRNRMVRGDPRAIVEYRDLDAPD
modifications: isoform 4
notes: human ARS2 isoform 4 residues 763–871, E. coli expressed

Columns and labels:
CBC [1] = target: T1, CBC; assay: Size exclusion chromatography (gel filtration) co-elution with CBC, with m^7GTP; assay type: binding; conditions: gel filtration with 500 µM m^7GTP, fractions analysed by SDS-PAGE
Experimental: Fig. 1 The interaction of CBC with ARS2 is enhanced in the presence of m^7GTP. a Schematic diagram of the domain structure of ARS2 based on ref. [26]. b Gel filtration chromatogram and Coomassie-stained SDS-PAGE of CBC-ARS2 in the presence and absence of m^7GTP. Purified recombinant CBC and ARS2^147–871 were mixed with (orange) or without (blue) 500 µM m^7GTP and subjected to gel filtration. Their elution profiles were overlaid (left) and single fractions analysed by SDS-PAGE (middle and right). Purified recombinant CBC and C-terminally truncated ARS2^147–845 were mixed with 500 µM m^7GTP and analysed in a similar way (bottom left). c ITC data and curve fit to derive the affinity of different ARS2 constructs for CBC. CBC or m^7GTP-CBC in the sample cell was titrated by ARS2. […] K D values and standard deviation represent the average from at least two independent experiments. d Sequence alignment of the C-terminus of ARS2. Conserved residues are highlighted in red. Figure made with ESPript[54]
Fig. 2 The interaction of CBC with NELF-E is enhanced in the presence of m^7GTP. a Schematic diagram of the domain structure of NELF-E. b Gel filtration chromatogram and Coomassie-stained SDS-PAGE of CBC-NELF-E in the presence and absence of m^7GTP. Purified recombinant CBC and NELF-E were mixed with (orange) or without (green) 500 µM m^7GTP and subjected to gel filtration. Their elution profiles were overlaid (left) and single fractions analysed by SDS-PAGE (middle and right). Purified recombinant CBC and NELF-E^244–360 were mixed together with 500 µM m^7GTP and similarly analysed (bottom left). c ITC data and curve fit to derive the affinity of different NELF-E constructs for CBC. CBC or m^7GTP-CBC in the sample cell was titrated by NELF-E^244–380 or NELF-E^360–380. The data were presented as described in the caption to Fig. 1c. d Sequence alignment of the C-terminus of NELF-E. Conserved residues are highlighted in red. Figure made with ESPript[54]

m^7GTP-CBC = target: T2, m^7GTP-CBC; assay: ITC, binding to CBC in the presence of the cap analogue m^7GTP; conditions: ITC, 25 °C, 20 mM HEPES, 120 mM NaCl, 2 mM TCEP, pH 7.8, CBC bound to m^7GTP, mean ± SD of at least two independent experiments
Description: (§1) hARS2 isoform-4 (871 residues, UniProt:Q9BXP5-4, also known as isoform-e, NP_001122326) constructs (residues 147–871, 147–845, 763–871, 763–845, 827–871) hNELF-E (NM_002904.5) (244–380, 244–360) and hPHAX (NM_032177.3) (1–394, 103–294, 103–308, 103–327) were cloned into pETM11 (EMBL). Full-length hNELF-E (1–380) was cloned into pFASTBac and CBP20 into pETM30. Primers used are given in Supplementary Table 2. All constructs were expressed in E. coli Rosetta 2 (Novagen), except full-length NELF-E and CBP80ΔNLS (CBP80 with residues 1–19 deleted[2]), which were expressed in High Five insect cells (Life Technology). Cells were harvested and lysed by sonication in lysis buffer containing 50 mM HEPES, pH 7.8, 300 mM NaCl, 10% (v/v) glycerol, 5 mM β-mercaptoethanol. Lysates were clarified by centrifugation and applied on an equilibrated Ni-sepharose column (GE Healthcare), washed with 20 mM imidazole in lysis buffer, and eluted with 300 mM imidazole in lysis buffer. While dialysing into 20 mM HEPES, pH 7.8, 120 mM NaCl, 10% (v/v) glycerol, 5 mM β-mercaptoethanol, the N-terminal 6-histidine-tag was cleaved with His-tagged Tobacco Etch Virus (TEV) protease overnight in a ratio 1:100 mg TEV per mg protein. The cleaved protein was further purified first on Ni-sepharose to remove TEV and then using an anion exchange column (HiTrap Q, GE Healthcare) followed if necessary by a Heparin column (GE Healthcare). In both cases a NaCl gradient from 50 to 800 mM in 20 mM HEPES 7.8, 0.5 mM tris(2-carboxyethyl)phosphine was used. To reconstitute the CBC heterodimer, cleared His-tagged CBP20 lysate was first immobilised on a Ni-sepharose column. After washing the column with lysis buffer, the cleared CBP80 lysate was applied to the column and further purification steps performed as described above. To remove the access of CBP20 the flow through of the Ni-column after TEV cleavage was loaded on an anion exchange column (HiTrap Q, GE Healthcare) and CBC eluted by a NaCl gradient as described above. In the text we refer to CBP80ΔNLS and CBP80ΔNLS-CBP20 as CBP80 and CBC, respectively. ARS2^845–871, NELF-E^354–380, and NELF-E^360–380 peptides, with or without FAM label at the N-terminus, were purchased from GenScript.

CBC [2] = target: T1, CBC; assay: ITC, binding to CBC without cap analogue; conditions: ITC (MicroCal ITC200), 25 °C, 20 mM HEPES, 120 mM NaCl, 2 mM TCEP, pH 7.8, single-site fit; no cap analogue pre-bound; mean ± SD of at least two independent experiments; SD
Description: as §1

| Molecule | Interaction with CBC by SEC in the presence of m^7GTP (CBC [1]) | Kd (CBC [2]) [µM] | other results |
| --- | --- | --- | --- |
| B1 | no stable complex is observed by SEC |  |  |
| B2 | failed to bind |  |  |
| B3 |  |  | K D (m^7GTP-CBC): failed to bind |
| B4 |  | 0.6 ± 0.14 |  |
| B5 |  | 0.85 ± 0.21 |  |
| B6 |  |  | Kd (m^7GTP-CBC; SD): 1 ± 0.3 µM |
